The record followed here is the nanobody polyreactivity screen of Harvey et al. (2022).

This data set in a line: yeast display, Sf9 membrane polyspecificity reagent, FACS + sequencing; frameworks hold sequencing errors. The method, boiled down:
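Nanobodies from a synthetic yeast display library (Saccharomyces cerevisiae BJ5465), induced 36–48 hours with galactose, were stained 1 hour at 4 °C with 10% biotinylated, detergent-solubilized Sf9 membrane reagent, enriched on streptavidin microbeads, then FACS-sorted. Anti-HA (expression) and streptavidin (reagent binding) fluorescence set low and high (top ~1%) gates. Polyreactivity labels come from the gate of origin. Genes were colony-PCR amplified, MiSeq 2 × 250 sequenced and filtered by CDR length.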
With “QVQLVESGGGLVQAGGSLRLSCAASGSISYFNAMGWYRPAPGKERELVAAITSGGSTYYADSVKGRFTISRDNAKNTVYLQMTSLKPEDTAVYYCNAPLEWGVYAAQNWDDGYWGQGTQVTVSS”, the “polyreactivity (PSR sort gate)” value is “low polyreactivity”.
Consider “QVQLVESGGGLVQAGGSLRLSCAASGSISYFNAMGWYRQAPGKERELVAAITSGGSTYYADSVKGRFTISLDNAKNTVYLQMNSLKPEDTAVYYCNAPLEWGVYAAQNWDDGYWGQGTQVTVSS”, for which the “polyreactivity (PSR sort gate)” value is “low polyreactivity”.
In the case of “QVQLVESGGGLVQAGGSLRLSCAASGSISYFNDMGWYRQAPGKERELVAAIRDSGGITYADSVKGRFTISRDNAKNTVYLQMNSLKPEDTAVYYCATYGNEIYDYWGLGTQVTVSS”, the “polyreactivity (PSR sort gate)” value is reported as “low polyreactivity”.
As for “QVQLVESGGGLVQAGGSLRLSCAASGSISYFYAMGWYRQAPGKERELVAAINSGDDTYADSVKGRFTISRDNAKNTVYLQMNSLKPEDTAVYYCAVKYGGYESHYYRRPHYDYWGQGTQVTVSS”, the “polyreactivity (PSR sort gate)” value is given as “low polyreactivity”.
On to “QVQLVESGGGLVQAGGSLRLSCAASGSISYIYTMGWDRQAPGKQRELVAAMSGSGSTYYADSVKGRFTISRDNAKNTVYLQMNSLKQEDTAVHYCNAGSGGLNFQEVPHGYDYWGQGTQVTVSS”, for which the “polyreactivity (PSR sort gate)” value is recorded as “low polyreactivity”.
“QVQLVESGGGLVQAGGSLRLSCAASGSISYKYAMGWYRQAPGKERELVAAISSSGGRTYYADSVKGRFTISRDNAKNTVYLQMNSLKPEDTAVYYCNADVLFYTYYTRGRFDFDYWGQGTQVTVSS”: the “polyreactivity (PSR sort gate)” value is “low polyreactivity”.
For the sequence “QVQLVESGGGLVQAGGSLRLSCAASGSISYVNAMGWYRQAPGKERELVAAITGGGSTNYADSVKGRFTISRDNAKNTVYLQMNSLKPEDTAVYYCAADADTDVVYILQEYDYWGQGTQVTVSS”, the “polyreactivity (PSR sort gate)” value is listed as “low polyreactivity”.
Take “QVQLVESGGGLVQAGGSLRLSCAASGSITGLNAMGWYRHAPGKERELVAAIYRSGGRTYNADSVKGRFTISRDNAKNTVYLQMISLKPEDTAVYYCAAVTTWRLDYWGQGTQVTVSS”: the “polyreactivity (PSR sort gate)” value is on record as “high polyreactivity”.
On to “QVQLVESGGGLVQAGGSLRLSCAASGSIVHGYTMGWYRQEPGKERELVAAINSGDGSTYADSVKGRFPISRDNAKNTVYLQMNSLKPEDTAVYYCAADDSTLADGGDYWGQGTQVTVSS”, for which the “polyreactivity (PSR sort gate)” value is reported as “low polyreactivity”.
Regarding “QVQLVESGGGLVQAGGSLRLSCAASGSIVIINAMGWYRQAPGKERELVASMTRNGGSTYYADSVKGRFTISRDNPKNTVEFQMNSLKPDDTAVYYCAATYYRFPSLIAYVRYDYWGQGTQVTVSS”, the “polyreactivity (PSR sort gate)” value is “high polyreactivity”.
The result for “QVQLVESGGGLVQAGGSLRLSCAASGSIVPVYAMGWYRQAPGKEREFVAGINTIGGSTYYADSVKGRFTISRDNAKNTVYLQMNSLKPEDTAVYYCAATQYWNMYSWGQGTQVTVSS” reads “low polyreactivity”; that for “QVQLVESGGGLVQAGGSLRLSCAASGSIVSGYAMRWYRQAPGKQRELVAAISRGGSTNYADSVKGRFTISRDNAKNTVYLQMNSLKPEDTAVYYCANTPTKYHYAFGYWGQCTQVTVSS”, “low polyreactivity”.
“QVQLVESGGGLVQAGGSLRLSCAASGSIVSVYAMGWSRQAPGKEREWVAAISGRGGRTYYADSVKGRFTISRDNAKNTVYLQMNSLKPVDTAVYYCAARYPRYRYVEYGYNYWGQGTQVTVSS”: the “polyreactivity (PSR sort gate)” value is on record as “high polyreactivity”.
In the case of “QVQLVESGGGLVQAGGSLRLSCAASGSIWRNAMGWYRQAPGKERELVAGITRRSGSTYYADSVKGRFTISRDNAKYTVYLQMNSLKPEDTAVYYCARVVVGGDDYWGQGTQVTVSS”, the “polyreactivity (PSR sort gate)” value is “high polyreactivity”.
In the case of “QVQLVESGGGLVQAGGSLRLSCAASGSIYARNAMGWYRQAPGKERELVAAIRYSGGSTYYADSVKGRFTISRDNAKNTVYLQMNSLKPEDTAVYYCAARWGVFGYYYWGQVTQVTVSS”, the “polyreactivity (PSR sort gate)” value is reported as “high polyreactivity”.
With “QVQLVESGGGLVQAGGSLRLSCAASGSIYGYNAMGWYRQAPGKEREFVAAISWSGGRTYYADSVKGRFTISRDTAKNTVYLQMNSLNPEDTAVYYCAAPSRPAPRFDYWGQGTQVTVSS”, the “polyreactivity (PSR sort gate)” value was “low polyreactivity”.
“QVQLVESGGGLVQAGGSLRLSCAASGSIYGYTMGWNRQAPWKERELVAAINRRADRTYYADSVKGRFTISRDNAKNTVYLQMNSLKPEDTAVYYCNKGGWYTLGYWGQGTQVTVSS”: the “polyreactivity (PSR sort gate)” value was “high polyreactivity”.
Then “QVQLVESGGGLVQAGGSLRLSCAASGSIYNKNAMGWNRQAPGKERELVAAINQSGGGTYYADSVKGRFTISRDNAKNTVYLQMNSLKPEDTAVYYCAAQVWAGIRYYHMYYWGQGTQVTVSS”, with “low polyreactivity”.
In the case of “QVQLVESGGGLVQAGGSLRLSCAASGSIYRYAMGWYRQAPGKERELVAAINFNGGRTYYADSVKGRFTISRDNAKNTVYIQMNSLKPEDTAVYYCAAVRSSNQGGFDYWGQGTQVTVSS”, the “polyreactivity (PSR sort gate)” value was “high polyreactivity”.
With “QVQLVESGGGLVQAGGSLRLSCAASGSIYTSNAMGWYRQAPGKERELVAVITWRSGRTYYADSVKGRFTISRDNAMNTVYLQMNSLKPEDTAVYYCDALRYPKQKFDSWGQGTQVTVSS”, the “polyreactivity (PSR sort gate)” value was “high polyreactivity”.
In the case of “QVQLVESGGGLVQAGGSLRLSCAASGSIYVNTMGWYRQAPGKEREFVAAITRRGGSTYYADSVKGRFTISRDNAKNTVYLQMNSLKPEDTAVYYCNADNRYSAHDYWGQGTQVTVSS”, the “polyreactivity (PSR sort gate)” value is “high polyreactivity”.
The result for “QVQLVESGGGLVQAGGSLRLSCAASGSIYYFNAMGWYRQAPGKERELVASITSGGSTNYADSVKGRFTLSRDNAKNTVYLQMNSLNPEDTAVYYCNARFPYLSRWLVRGLASYDYWGQGTQVTVSS” reads “low polyreactivity”; that for “QVQLVESGGGLVQAGGSLRLSCAASGSLFEWYAMGWSRQAPGKEREFVADITYNGGSTYYADSVKGRFTISRDNAKNTVYLHMNSLKPEDTAVYYCAADYFVQVPDYYYPSEYGYWGQGTQVTVSS”, “low polyreactivity”.
Take “QVQLVESGGGLVQAGGSLRLSCAASGSLFNYYAMAWSRTAPGKERELVAGITTSGGSTYYAESVKGRFRISRDNAKNTVYLQMNSLKPEDTAVYYCAAYDYISSTYFLDDYWGQGTQVTVSS”: the “polyreactivity (PSR sort gate)” value is given as “low polyreactivity”.
“QVQLVESGGGLVQAGGSLRLSCAASGSLFTGYAMGWYRQAPGKERELVAAISSSGSTTYYADSVKGRFTISRDNAKNTVYLQMNSLKPEDTAVYYCATRVNYGYYYWGQGSQVTVSS”: the “polyreactivity (PSR sort gate)” value is reported as “high polyreactivity”.
For “QVQLVESGGGLVQAGGSLRLSCAASGSLFYFYAMGWYRQAPGKERELVAAISSGGSTYYADSVKGRFTISRDNAKNTVYLQMNSLKPEDTEVYYCAADSLYYRYDYWGQGTQVTVSS”, the “polyreactivity (PSR sort gate)” value was “low polyreactivity”.
For the sequence “QVQLVESGGGLVQAGGSLRLSCAASGSLVGYYPMGWYRQAPGKERELVAAISRSGGSTYYADSVKGRFSISRDNAKNTVYLQMNSLKPEDTAVYYCATSRVRSAGRDYWGQGTQVTVSS”, the “polyreactivity (PSR sort gate)” value is “high polyreactivity”.
For the sequence “QVQLVESGGGLVQAGGSLRLSCAASGSNFAKYAMGWYRQAPGKERELVAAISWRGGSTYYADSVKGRFTISRDNAKNTVYLQMNSLKPEDTAVYYCNKVGTWQGPYDYWGQGTQVTVSS”, the “polyreactivity (PSR sort gate)” value is “high polyreactivity”.
“QVQLVESGGGLVQAGGSLRLSCAASGSNFDIYAMGWSRQAPGKERELVAAISWNGGDTTYADSVKGRFTISRDNAKNTVYLQLNSLKPEDTAVYYCAADLGYWVADYYWGQGTQVTVSS”: the “polyreactivity (PSR sort gate)” value is listed as “high polyreactivity”.
The result for “QVQLVESGGGLVQAGGSLRLSCAASGSNFDVNAMGWYRQAPGKERELVAAISDSGGSTYYADSVKGRFTISRDNAKNTVYLQMNSLKPEDTAVYYCNADWSWYNYYDFDYWGQGTQVTVSS” reads “low polyreactivity”.
Then “QVQLVESGGGLVQAGGSLRLSCAASGSNFFFNTMGWYRQAPGKERELVAVITSGGSTYYADSVKGRFTISRDNAKNTVYLQMNSLKPEDTAVYYCAARYLPYRRIKYDYWGQGTQVTVSS”, with “low polyreactivity”; and “QVQLVESGGGLVQAGGSLRLSCAASGSNFFYYVMGWYRQAPGKERERVAAITRSTGSTYYADSVKGRFTISRDNAKNTVYLQMNSLIPEDTAVYSCAAEGPKWYYSGAFDYWGQGTQVTVSS”, with “low polyreactivity”; and “QVQLVESGGGLVQAGGSLRLSCAASGSNFGRYAMGWYRQAPGKESELVAAINDDSGRTYYADTVKGRFTISRDNAKNTVYLQMNSLKPEDTAVYYCAAYRISQGYSTYNYWGQGTQVTVSS”, with “high polyreactivity”.
Then “QVQLVESGGGLVQAGGSLRLSCAASGSNFGYYAMGWYRQAPGQERELVAAINSSGGSTYYADSVKGRFTISRDNAKNTVYLQMNSLKPEDTAVYYCAVRTRYKFNYWGQGTQVTVSS”, with “low polyreactivity”; and “QVQLVESGGGLVQAGGSLRLSCAASGSNFHQYAMGWYRQAPGKERELVAGINWSGGSTYYADSVKGRFTISRDNAKNTVYLQMNSLKPEDTAVYYCAKRYQLARAAYTGGYWGQGTQVTVSS”, with “high polyreactivity”; and “QVQLVESGGGLVQAGGSLRLSCAASGSNFKLYSMGWYRQAPGKERELVATIRWSGGSTYYADSVKGRFTISRDNAKNTVYLQMNSLKPEDTAVYYCAARRVRPNGYTSSPLDYWGQGTQVTVSS”, with “high polyreactivity”.
Consider “QVQLVESGGGLVQAGGSLRLSCAASGSNFKNNAMGWYRQAPGKEREFVASISKRGGSTYYADSVKGRFTISRDNAKNTVYLQMNSLKPEDTEVYYCAKTYWSYGWSHGDYGEFDYWGQGTQVTVSS”, for which the “polyreactivity (PSR sort gate)” value is recorded as “high polyreactivity”.
As to “QVQLVESGGGLVQAGGSLRLSCAASGSNFKWYAMGWYRQAPGKERELVSAISKSGGSTYYADSVKGRFTISRDNAKNTVYLQMNSLKPEDTAVYYCNAVYIGSRRRYEYDYWGQGTQVTVSS”, the “polyreactivity (PSR sort gate)” value is listed as “high polyreactivity”.
As for “QVQLVESGGGLVQAGGSLRLSCAASGSNFNRYAMGWYRQAPGKERELVAAITSTGGTNYADSVKGRFTISLDNAKNSVYLQMNSLKPEDTAVYYCAKRWLRWRSNYWGQVTQVTVSS”, the “polyreactivity (PSR sort gate)” value is “high polyreactivity”.
On to “QVQLVESGGGLVQAGGSLRLSCAASGSNFNVYVMGWYRQAPGKERELVAAISWGDGSTSYADSVKGRFTISRDHAKNTVYLQMNSLKPEDTAVYYCNRRHSYPYDYWGQGTQVTVSS”, for which the “polyreactivity (PSR sort gate)” value is listed as “high polyreactivity”.
Turning to “QVQLVESGGGLVQAGGSLRLSCAASGSNFPHNAMGWYRQAPGKERELVAAITSSGGSTYYADSVKGRFTISRDNAKNTVYLQMNSLKPEDTAVYYCNKGKQRRRYNYWGQGTQVTVSS”, the “polyreactivity (PSR sort gate)” value was “high polyreactivity”.
